These results are taken from US20240252641A1 (TCR2 THERAPEUTICS, published 2024).

The target of assay [1] is T1, human CD70, recombinant, N-terminally biotinylated (residues 39-193) (human, UniProt P32970 39-193, N-terminal biotin).
T1 construct: range 39-193; the same entry is used there; also called biotinylated human CD70; CD70 biotin
T1 sequence (looked up): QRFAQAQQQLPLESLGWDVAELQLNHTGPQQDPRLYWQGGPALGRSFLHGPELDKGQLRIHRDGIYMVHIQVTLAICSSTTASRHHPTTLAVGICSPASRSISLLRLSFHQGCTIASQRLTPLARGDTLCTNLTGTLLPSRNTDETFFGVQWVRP
Put plainly: SPR. Put shortly:
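Surface plasmon resonance (SPR) was used to determine the affinity (Kd) of human scFv antibodies for recombinant, N-terminally biotinylated human antigen. These antibodies were selected from a naïve human library panned against the CD70 extracellular domain, spanning aa39-193.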

In assay [2] the target is T1, human CD70, recombinant, N-terminally …. Put plainly: CD27 blocking ELISA, 3 µM scFv, strep/HRP. (ELISA stands for enzyme-linked immunosorbent assay.)
Assay [3] addresses T2, CD70 on cells (CHO-CD70, JVM-3, U266, Raji, THP-1, T cells) (human, UniProt P32970 1-193).
T2 construct: whole, on cells; also called cell-surface CD70
T2 sequence (looked up): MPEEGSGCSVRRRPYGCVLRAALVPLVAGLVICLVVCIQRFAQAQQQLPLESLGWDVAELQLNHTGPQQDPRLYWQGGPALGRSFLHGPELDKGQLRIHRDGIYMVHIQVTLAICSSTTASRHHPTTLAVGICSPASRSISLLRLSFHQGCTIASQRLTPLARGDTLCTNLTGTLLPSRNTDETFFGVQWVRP
Put plainly: 1.25 µg/mL scFv on JVM-3 cells. The method, boiled down:
(§1)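 Human scFv antibodies came from panning a naïve human library against the CD70 extracellular domain (aa39-193). Binding was recorded for each tumour cell line, both high CD70 expressors (CHO-CD70, JVM3, U266) and low CD70 expressors (CHO WT, K562). No detection method is stated.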

Assay [4] deals with T2, CD70 on cells (CHO-CD70, JVM-3, U266, …). Briefly: 1.25 µg/mL scFv on CHO-CD70 cells. Put shortly:
as §1

Assay [5] shares this target. Put plainly: 1.25 µg/mL scFv on U266 cells. Put shortly:
as §1

For assay [6], the target named is T1, human CD70, recombinant, N-terminally …. Put plainly: CD27 blocking ELISA, 3 µM scFv, anti-His/HRP. Further: unit not given here. Put shortly:
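Plate-bound CD70 was either exposed to CD27 and His-tagged scFv added together, or pre-incubated with CD27 for 30 minutes before more CD27 and scFv were added. scFv still bound to CD70 was detected with anti-His HRP.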

Assay [7] deals with T2, CD70 on cells (CHO-CD70, JVM-3, U266, …). Put plainly: on U266 cells.
Assay [8] shares this target. Put plainly: on JVM-3 cells.
The target is the same in assay [9]. Put plainly: on Raji cells.
In assay [10] the target is T3, CD70 (UniProt P32970 39-193, limits assumed).
T3 construct: also called CD70 (100 nM)
T3 sequence (looked up): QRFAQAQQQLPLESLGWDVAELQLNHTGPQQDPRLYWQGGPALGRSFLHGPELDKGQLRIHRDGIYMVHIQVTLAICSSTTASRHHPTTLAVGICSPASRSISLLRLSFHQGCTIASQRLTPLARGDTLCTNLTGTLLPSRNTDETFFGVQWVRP
Put plainly: Octet (BLI); hybridoma mAb, CD70 at 100 nM.

Assay [11] addresses T3, CD70. Put plainly: Octet (BLI); mAb binding to CD70 with CD27 (competitor CD27). Background: In BLI a coated tip is dipped into the sample, and binding shifts an interference pattern.

By Kd is commonly meant the constant that tells how readily two partners part at equilibrium. Usually koff stands for a measure of how fast the partners let go of each other. Low values mean slow dissociation, high ones fast dissociation. As usually defined, the kon is the rate constant with which the complex forms. The low end stands for slow association, the high end for fast association.

B1: 1-TC4-I-C10 (scFv)
scFv: EVQLVQSGAEVKKPGESLKISCKGSGYSFTSYWIGWVRQMPGKGLEWMGIIYPGDSDTRYSPSFQGQVTISADKSISTAYLQWSSLKASDTAMYYCAISRTESYVMDVWGQGTTVTVSSGGSGGSGGSGGSQSALTQPRSVSGSPGQSVTISCTGTSSDVGGYNYVSWYQQHPGKAPKLMIYDVTNRPSGVPDRFSASKSDNTATLTVSGVQAEDEADYYCSSYAGSHELFGGGTKLTVL
notes: His-tagged; also called 1867
In the case of B1, the Kd in assay [1] came out at 6170 pM. In addition, the strep/HRP in [2] came out at 0.075. For the same molecule, the cell binding in assay [3] was found to be 73300; in assay [4], 978000; in assay [5] it was 48800. Moreover, in [6], the “anti His/HRP” value is 2.83.

B2: 1E3 (antibody, V domains shown)
VH: QLQLQESGPGLVKPSETLSLTCTVSGASITSTSYYWNWIRQPPGKGLEWIGRISYSGSTYYNPSLKSRVTISVDTSKNQFSLKLSSVTATDTAVYYCARQIRYNWNPDTFDIWGQGTMVTVSS
VL: EIVMTQSPATLSVSPGERATLSCRASQSLNSNLAWYQQKPAQAPRLLIYGASTRATGIPARFSGSGSGTEFTLTISSLQSEDFAVYYCQQYDNWPLTFGGGTKVEIK
notes: alloy mouse hybridoma antibody; also called 1E3D9
Take B2: the cell binding in assay [7] was 106000; in assay [8] it was 121000; in assay [9], 38800.

B3: 9B2 (antibody, V domains shown)
VH: QLQVVESGGGLMQPGGSLRLSCAASGFTFSGSAMSWVRQAPGKGLEWVSSIYSHSMYTYYADSVKSRFTISTDNAKNTLYLQMNSLKPDDTAVYYCAASSDYEGLFVSWGQGTQVTVSS
VL: QAVLTQPPSLSASPGSSVRLTCTLNSANSVGSYDISWYQQKAGSPPRYLLYYYSDSLSHQGSGVPSRFSGSTDASANAGLLLISGLQPEDEADYYCSAYNRGSHVFGGGTKLTVL
As to B3, the values for the cell binding in [7], in [8] and in assay [9] were 8040, 8940 and 7310, respectively.

B4: 2F1 (antibody, V domains shown)
VH: EVQLVESGGVVVQPGGSLRLSCAASGFTFDDYTMHWVRQAPGKGLEWVSLVSWDGGSTYYADSVKGRFTTSRDNSKKFLYLQMNRLRTEDTALYFCAIDRAYRPYYYYHMDVWGKGTTVTVSS
VL: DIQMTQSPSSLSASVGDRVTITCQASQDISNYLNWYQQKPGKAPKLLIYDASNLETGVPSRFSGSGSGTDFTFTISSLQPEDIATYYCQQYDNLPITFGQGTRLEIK
notes: alloy mouse hybridoma antibody; also called 2F1F7
With B4, the cell binding in [7] is 30600; in [8] it was 31600; in assay [9], 12100.

B5: 9A1 (antibody, V domains shown)
VH: QVQLVQSGAEVKKPGASVKVSCKASGYSFTGYYMHWVRQAPGQGLEWMGWINPKSGGTSYAQQFQGRVTMTRDTSMSTVYMELTRLRADDTAVYYCARLYYSGWYGDYWGQGTLVTVSS
VL: DIQMTQSPSSLSASVGDRVTITCQASQDINNYLNWYQQKPGKVPNLLIYDASNLETGVPSRFSGSGSGTDFTFTISSLQPEDIATYYCQQYNNPPITFGQGTRLEIK
notes: alloy mouse hybridoma antibody; also called 9A1H6
B5: the results for the cell binding in assay [7], in [8] and in assay [9] were 324000, 401000 and 139000, respectively.

B6: 13G6 (antibody, V domains shown)
VH: QVQLVESGGGVVQPGKSLRLSCAASGFTFSNYGIHWVRQAPGKGLEWVAVIWYDGSYKYYADSVKGRFTISRDNSKNTLYLQMNSLRAEDTALYYCARDTVDTYGSFDYWGQGTLVTVSS
VL: DIQLTQSPSFLSASVGDRVTITGRASQGISSYLAWYQQKPGKAPNLLIYAASTLQSGVPSRFSGSGSGTEFTLTISSLQPEDFATYYCQQHNRYPITFGQGTRLEIK
notes: alloy mouse hybridoma antibody; also called 13G6E8
On to B6, for which the cell binding in assay [7] turned out to be 389000; in assay [8], 479000; in [9] it was 144000.

B7: 4G7 (antibody, V domains shown)
VH: QVQLVESGGGVVQPGRSLRLSCAASGFTFSSYGLHWVRQAPGKGLDWVAVIWYDGSNKYYVDSVKGRFTISRDNSMNTLFLQMNSLRAEDTAVYYCARDEAAAAGAFDIWGQGTMVTVSS
VL: DIQLTQSPSFLSASVGDRVTITCRASQGISSYLAWYQQKPGKAPKLLIYAASTLQSGVPSRFSGSGSGTEFTLTISSLQPEDFATYYCQQLNYYSITFGQGTRLEIK
notes: alloy mouse hybridoma antibody; also called 4G7E8
B7: the cell binding came out at 310000 in assay [7], 322000 in assay [8] and 103000 in assay [9].

B8: 9A11 (9A11E8) (antibody, V domains shown)
VH: QVQLVESGGGVVQPGRSLRLSCAASGFTFSNYGMYWVRQAPGKGLEWVAVIWYDGSKKYYGDSVKGRFTISRDNSKNTLYLQMNSLRAEDTAVYYCARDEDTVMASFDYWGQGTLVTVSS
VL: DIQLTQSPSFLSASVGDRVTITCRASQDISIYLAWYQQKPGKAPQLLIYAASTLQSGVPSRFSGSGSGTEFTLTISSLQPEDFATYSCQQLNSYPITFGGGTKVEIK
notes: IgG in hybridoma supernatant
In the assay with CD70 [10], B8 showed a Kd of 2.46 pM, a Response of 0.429, a koff of 3.36e-07 s⁻¹ and a kon of 137000 M⁻¹ s⁻¹. Besides, the “CD27:CD70 Interaction Neutralization of mAb Binding” value with CD70 [11] was found to be 0.0777.

B9: 9A11 (antibody, V domains shown)
VH: QVQLVESGGGVVQPGRSLRLSCAASGFTFSNYGMYWVRQAPGKGLEWVAVIWYDGSKKYYGDSVKGRFTISRDNSKNTLYLQMNSLRAEDTAVYYCARDEDTVMASFDYWGQGTLVTVSS
VL: DIQLTQSPSFLSASVGDRVTITCRASQDISIYLAWYQQKPGKAPQLLIYAASTLQSGVPSRFSGSGSGTEFTLTISSLQPEDFATYSCQQLNSYPITFGGGTKVEIK
notes: alloy mouse hybridoma antibody; also called 9A11E8
As for B9, the cell binding was found to be 351000 in [7], 410000 in assay [8] and 145000 in [9].

B10: 13G6 (antibody, V domains shown)
VH: QVQLVESGGGVVQPGKSLRLSCAASGFTFSNYGIHWVRQAPGKGLEWVAVIWYDGSYKYYADSVKGRFTISRDNSKNTLYLQMNSLRAEDTALYYCARDTVDTYGSFDYWGQGTLVTVSS
VL: DIQLTQSPSFLSASVGDRVTITGRASQGISSYLAWYQQKPGKAPNLLIYAASTLQSGVPSRFSGSGSGTEFTLTISSLQPEDFATYYCQQHNRYPITFGQGTRLEIK
notes: IgG in hybridoma supernatant; also called 13G6E8
In the assay with CD70 [10], B10 showed a Kd of 3.42 pM, a Response of 0.409, a koff of 3.3e-07 s⁻¹ and a kon of 96400 M⁻¹ s⁻¹. The “CD27:CD70 Interaction Neutralization of mAb Binding” value in the assay with CD70 [11] turned out to be 0.0585.

B11: 15F8 (antibody, V domains shown)
VH: EVQLVESGGGVVRPGGSLRLSCAASGFTFDDYGVSWVRQAPGRGLEWVSGINWNGGSTAYADSVKGRFTISRDSAKNSLYLQMDSLRAEDTALYYCAREEGSYYVWYFDIWGRGTLVTVSS
VL: DIQMTQSPSSLSASVGDRVTITCRPSQSISNYLNWYQQKPGKAPKVLIYASFILQSGVPSRFGGSGSGTDFTLTISSLQPEDFATYYCQQSYSNPFTFGPGTKVDIK
notes: alloy mouse hybridoma antibody; also called 15F8D8; 15F8D9
B11: the values for the cell binding in assay [7], in assay [8] and in assay [9] were 213000, 234000 and 85100, respectively.

B12: 15F8 (15F8D8) (antibody, V domains shown)
VH: EVQLVESGGGVVRPGGSLRLSCAASGFTFDDYGVSWVRQAPGRGLEWVSGINWNGGSTAYADSVKGRFTISRDSAKNSLYLQMDSLRAEDTALYYCAREEGSYYVWYFDIWGRGTLVTVSS
VL: DIQMTQSPSSLSASVGDRVTITCRPSQSISNYLNWYQQKPGKAPKVLIYASFILQSGVPSRFGGSGSGTDFTLTISSLQPEDFATYYCQQSYSNPFTFGPGTKVDIK
notes: IgG in hybridoma supernatant; also called 15F8D9
In the assay with CD70 [10], B12 registered a Kd of 4.81 pM, a Response of 0.382, a koff of 3.36e-07 s⁻¹ and a kon of 69800 M⁻¹ s⁻¹. Moreover, the “CD27:CD70 Interaction Neutralization of mAb Binding” value in the assay with CD70 [11] came to 0.0349.
